Each block holds one molecule with its values, some of them ahead of it.
Tests used:
[1] = biological target: recombinant His-tagged VWF-A1 domain (amino acids Q1238-D1471) (human); assay: SPR; Biacore 3000, 25 C; VWF-A1 immobilised (1500 RU); fH 40 to 640 nM, 20 uL/min; fitted to two-state model; apparent KD
[2] = biological target: recombinant VWF-A2 as used in the ELISA and Biacore experiments (human) (UniProt P04275); assay: SPR; Biacore 3000, 25 C; VWF-A2 (1000 RU) or VWF-A3 (800 RU) immobilised; fH 40 to 640 nM, 20 uL/min; for VWF-A2 responses at equilibrium fitted to a one-site binding isotherm
[3] = biological target: plasma purified human VWF (human); assay: SPR; Biacore 3000, 25 C; VWF immobilised by amine coupling (2100 RU); fH 5 to 320 nM in HBS with 50 uM ZnCl2, 30 uL/min; global fit to two-state model; apparent KD
[4] = biological target: T1, plasma purified human factor H (human, UniProt P08603 19-1231); assay: co-IP; plasma-purified fH (30 nM) incubated with His-tagged VWF-A1, -A2 (E. coli or HEK 293), -A3 or Myc-tagged VWF-BC (100 nM); precipitated with anti-fH antibody or IgG; blot anti-VWF; conditions: both partners purified
T1 construct: complement factor H, human, purified from plasma (150 kD, 20 SCRs); also the endogenous protein in normal serum; also called fH; complement factor H; source: bought: Complement Technology Inc., plasma purified; endogenous, normal human serum
T1 sequence (P08603 19-1231): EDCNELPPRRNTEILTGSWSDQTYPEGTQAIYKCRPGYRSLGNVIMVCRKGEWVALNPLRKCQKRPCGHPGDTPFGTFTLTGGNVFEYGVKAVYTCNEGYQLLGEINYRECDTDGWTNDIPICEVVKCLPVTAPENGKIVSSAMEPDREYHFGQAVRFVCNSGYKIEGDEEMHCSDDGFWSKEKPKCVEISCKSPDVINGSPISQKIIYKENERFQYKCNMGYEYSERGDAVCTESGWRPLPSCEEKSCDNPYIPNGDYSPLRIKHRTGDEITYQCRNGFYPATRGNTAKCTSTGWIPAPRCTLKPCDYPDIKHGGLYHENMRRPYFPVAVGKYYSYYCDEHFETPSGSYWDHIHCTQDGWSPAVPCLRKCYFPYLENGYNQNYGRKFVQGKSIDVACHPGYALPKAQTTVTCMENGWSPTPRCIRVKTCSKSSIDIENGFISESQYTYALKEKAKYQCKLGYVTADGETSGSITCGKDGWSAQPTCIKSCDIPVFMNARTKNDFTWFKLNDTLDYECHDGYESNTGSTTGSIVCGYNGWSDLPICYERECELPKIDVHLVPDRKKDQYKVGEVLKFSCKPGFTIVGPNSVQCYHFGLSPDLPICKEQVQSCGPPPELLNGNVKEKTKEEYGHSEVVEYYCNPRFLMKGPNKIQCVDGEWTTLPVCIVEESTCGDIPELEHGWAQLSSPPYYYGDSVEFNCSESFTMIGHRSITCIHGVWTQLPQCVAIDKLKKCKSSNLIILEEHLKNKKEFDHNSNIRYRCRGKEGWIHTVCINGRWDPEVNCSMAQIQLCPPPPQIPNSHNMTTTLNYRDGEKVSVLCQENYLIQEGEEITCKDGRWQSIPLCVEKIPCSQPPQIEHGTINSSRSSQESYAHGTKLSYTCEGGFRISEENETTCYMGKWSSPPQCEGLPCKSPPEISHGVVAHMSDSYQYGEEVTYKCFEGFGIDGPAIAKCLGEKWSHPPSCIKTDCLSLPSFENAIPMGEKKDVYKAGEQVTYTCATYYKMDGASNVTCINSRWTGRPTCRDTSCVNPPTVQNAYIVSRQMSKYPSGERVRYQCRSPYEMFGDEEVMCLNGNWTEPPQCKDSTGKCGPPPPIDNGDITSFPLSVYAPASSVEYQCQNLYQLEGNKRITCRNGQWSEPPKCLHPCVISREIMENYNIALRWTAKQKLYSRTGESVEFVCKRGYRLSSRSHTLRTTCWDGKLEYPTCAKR

[5] = biological target: T2, truncated fH F3 with SCRs 1-15, amino acids M1-G928 (human, UniProt P08603 19-928); assay: pull-down; GST-VWF-A2 (100 nM) incubated with recombinant F4, F3, F2 or F1 (30 nM each); glutathione agarose beads, overnight 4 C; blot polyclonal or monoclonal (90X) anti-fH; conditions: both partners purified
T2 construct: signal peptide in the construct; complement factor H, human, SCRs 1-15, amino acids M1-G928, in pSecTag2B His tag vector; source: HEK 293, stably transfected, secreted into serum-free medium, purified (Ni-NTA)
T2 sequence (P08603 19-928): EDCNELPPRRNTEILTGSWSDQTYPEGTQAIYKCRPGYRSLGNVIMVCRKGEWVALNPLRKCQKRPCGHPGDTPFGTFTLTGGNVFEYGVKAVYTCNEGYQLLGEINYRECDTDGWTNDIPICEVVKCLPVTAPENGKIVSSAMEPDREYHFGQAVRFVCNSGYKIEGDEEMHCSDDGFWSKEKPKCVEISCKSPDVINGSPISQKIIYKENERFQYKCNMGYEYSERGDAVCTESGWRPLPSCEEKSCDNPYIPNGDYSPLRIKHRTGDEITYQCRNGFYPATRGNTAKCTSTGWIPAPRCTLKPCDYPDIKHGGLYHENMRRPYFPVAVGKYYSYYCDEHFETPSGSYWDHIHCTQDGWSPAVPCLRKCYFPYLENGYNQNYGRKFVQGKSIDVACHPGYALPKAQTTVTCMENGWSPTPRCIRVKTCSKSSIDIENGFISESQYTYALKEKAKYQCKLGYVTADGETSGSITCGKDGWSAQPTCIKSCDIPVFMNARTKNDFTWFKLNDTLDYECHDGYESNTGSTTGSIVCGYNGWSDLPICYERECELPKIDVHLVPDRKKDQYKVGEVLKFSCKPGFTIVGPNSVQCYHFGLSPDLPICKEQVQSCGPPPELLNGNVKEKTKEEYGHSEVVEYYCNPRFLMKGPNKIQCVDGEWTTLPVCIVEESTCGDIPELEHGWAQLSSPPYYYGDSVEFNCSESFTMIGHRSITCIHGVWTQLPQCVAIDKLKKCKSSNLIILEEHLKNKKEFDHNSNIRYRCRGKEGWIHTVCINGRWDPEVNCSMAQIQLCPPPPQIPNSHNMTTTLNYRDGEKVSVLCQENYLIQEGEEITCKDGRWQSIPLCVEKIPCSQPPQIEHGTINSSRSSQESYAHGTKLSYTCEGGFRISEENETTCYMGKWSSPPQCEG

[6] = biological target: T3, truncated fH F2 with SCRs 1-10, amino acids M1-E625 (human, UniProt P08603 19-625); assay: as above; conditions: both partners purified
T3 construct: signal peptide in the construct; complement factor H, human, SCRs 1-10, amino acids M1-E625, in pSecTag2B His tag vector; source: HEK 293, stably transfected, secreted into serum-free medium, purified (Ni-NTA)
T3 sequence (P08603 19-625): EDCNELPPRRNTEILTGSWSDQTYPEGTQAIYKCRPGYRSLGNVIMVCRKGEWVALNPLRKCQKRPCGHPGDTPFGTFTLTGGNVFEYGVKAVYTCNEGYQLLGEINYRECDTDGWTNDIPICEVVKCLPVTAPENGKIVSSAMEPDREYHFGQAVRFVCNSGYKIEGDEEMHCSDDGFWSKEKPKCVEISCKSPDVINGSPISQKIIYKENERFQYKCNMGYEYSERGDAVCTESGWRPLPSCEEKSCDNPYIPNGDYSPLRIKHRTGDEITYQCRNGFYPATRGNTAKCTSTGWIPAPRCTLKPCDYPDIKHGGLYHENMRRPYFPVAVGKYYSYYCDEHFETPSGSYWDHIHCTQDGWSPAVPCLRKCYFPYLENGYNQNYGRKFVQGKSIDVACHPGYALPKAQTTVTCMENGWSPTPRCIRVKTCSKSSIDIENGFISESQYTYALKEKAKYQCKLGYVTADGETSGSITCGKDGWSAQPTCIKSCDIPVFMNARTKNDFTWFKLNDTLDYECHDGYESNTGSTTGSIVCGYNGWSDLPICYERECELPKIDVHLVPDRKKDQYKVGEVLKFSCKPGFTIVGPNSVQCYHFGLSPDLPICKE

[7] = biological target: T4, recombinant full-length wild type human fH (F4 with SCRs 1-20, amino acids M1-R1231) (human, UniProt P08603 19-1231); assay: as above; conditions: both partners purified
T4 construct: signal peptide in the construct; complement factor H, human, SCRs 1-20, amino acids M1-R1231, in pSecTag2B His tag vector; also called full-length recombinant fH; source: HEK 293, stably transfected, secreted into serum-free medium, purified (Ni-NTA)
T4 sequence (P08603 19-1231): as the sequence (P08603 19-1231) above

binding result [4]: binds
B1: recombinant His-tagged VWF-A2 (amino acids G1481-R1668), purified from transfected E. coli (domain or fragment)
chain: GLLGVSTLGPKRNSMVLDVAFVLEGSDKIGEADFNRSKEFMEEVIQRMDVGQDSIHVTVLQYSYMVTVEYPFSEAQSKGDILQRVREIRYQGGNRTNTGLALRYLSDHSFLVSQGDREQAPNLVYMVTGNPASDEIKRLPGDIQVVPIGVGPNANVQELERIGWPNAPILIQDFETLPREAPDLVLQR
notes: von Willebrand factor A2 domain, amino acids G1481-R1668; source: E. coli, purified (Ni-NTA)

binding result [5]: binds
binding result [6]: binds
binding result [7]: binds
B3: GST-VWF-A2 fusion protein (amino acids P1480-G1672) (domain or fragment)
chain: PGLLGVSTLGPKRNSMVLDVAFVLEGSDKIGEADFNRSKEFMEEVIQRMDVGQDSIHVTVLQYSYMVTVEYPFSEAQSKGDILQRVREIRYQGGNRTNTGLALRYLSDHSFLVSQGDREQAPNLVYMVTGNPASDEIKRLPGDIQVVPIGVGPNANVQELERIGWPNAPILIQDFETLPREAPDLVLQRCCSG
notes: von Willebrand factor A2 domain, amino acids P1480-G1672, in pGEX-2T GST vector; also called GST-A2; recombinant VWF-A2; source: E. coli, purified (glutathione agarose beads)

More lines, now with the values behind:

Molecule: plasma purified human factor H (from UniProt P08603 19-1231) (natural protein)
Kd [1]: 161 nM
ka1 (binding step, two-state model) [1]: 53600 M⁻¹ s⁻¹
ka2 (forward rate, conformational change step) [1]: 0.00797 s⁻¹
kd1 (binding step, two-state model) [1]: 0.0358 s⁻¹
kd2 (backward rate, conformational change step) [1]: 0.00254 s⁻¹
Kd [2]: 147 nM
Kd [3]: 32.9 nM
ka1 (binding step, two-state model) [3]: 60000 M⁻¹ s⁻¹
ka2 (forward rate, conformational change step) [3]: 0.007 s⁻¹
kd1 (binding step, two-state model) [3]: 0.0158 s⁻¹
kd2 (backward rate, conformational change step) [3]: 0.0009 s⁻¹

B2: recombinant His-tagged VWF-A2 (amino acids P1480-G1672), purified from transfected HEK 293 cells (domain or fragment)
chain: B3 chain
notes: von Willebrand factor A2 domain, amino acids P1480-G1672, in pSecTag2B His-tag vector; also called His-tagged A2; source: HEK 293, purified (Ni-NTA)
binding result [4]: binds
